Where “and” joins values, the source holds several entries; their conditions need not be identical. Equal values may be shown once.
Experiments:
DoHH2 cells = test: DoHH2 xenograft tumor volume reduction; type: in vivo; settings: Table 16 study; follicular lymphoma DOHH2 xenograft, CB17 SCID mice; 600 or 300 μg/m^2
Text: In a similar study, using the same xenograft study protocol as disclosed in the above examples, varying the TDCs and doses administered, the efficacy of TDCs in follicular lymphoma DOHH2 xenografts in CB17 SCID mice was studied.

Granta-519 cells = test: Granta-519 xenograft tumor volume reduction; type: in vivo, SCID mice; settings: Table 14 study, FIG. 19, 100 μg/m^2 drug at Day 0
Experimental: The ability of the thiomab drug conjugates prepared according to Example 11 to reduce B-cell tumor volume in xenograft models was tested according to the procedure disclosed in Example 9, herein. To SCID mice having Granta-519 cell xenograft tumors, control and anti-CD22 humanized 10F4v3 thiomab drug conjugates were administered at Day 0 in the doses shown in Table 14, below. The control HC(A118C) thiomab was anti-HER2 4D5 antibody.
Additional thiomab drug conjugates were tested in Granta-519 xenografts in CB17 SCID mice using the same protocol, although different drug doses were tested. The control antibody or control thiomab was anti-HER24D5 antibody or HC(A118C) thiomab.

[1] = target: T1, human CD22-beta-ECD-His tagged soluble antigen (Homo sapiens, UniProt P20273, A486R/Y639H); test: BIACORE surface plasmon resonance binding to soluble CD22 ECD; settings: BIACORE 3000, 25° C., antibody coupled to chip, soluble CD22 ECD injected; one-to-one Langmuir model
T1 sequence (P20273 22-681 A486R/Y639H): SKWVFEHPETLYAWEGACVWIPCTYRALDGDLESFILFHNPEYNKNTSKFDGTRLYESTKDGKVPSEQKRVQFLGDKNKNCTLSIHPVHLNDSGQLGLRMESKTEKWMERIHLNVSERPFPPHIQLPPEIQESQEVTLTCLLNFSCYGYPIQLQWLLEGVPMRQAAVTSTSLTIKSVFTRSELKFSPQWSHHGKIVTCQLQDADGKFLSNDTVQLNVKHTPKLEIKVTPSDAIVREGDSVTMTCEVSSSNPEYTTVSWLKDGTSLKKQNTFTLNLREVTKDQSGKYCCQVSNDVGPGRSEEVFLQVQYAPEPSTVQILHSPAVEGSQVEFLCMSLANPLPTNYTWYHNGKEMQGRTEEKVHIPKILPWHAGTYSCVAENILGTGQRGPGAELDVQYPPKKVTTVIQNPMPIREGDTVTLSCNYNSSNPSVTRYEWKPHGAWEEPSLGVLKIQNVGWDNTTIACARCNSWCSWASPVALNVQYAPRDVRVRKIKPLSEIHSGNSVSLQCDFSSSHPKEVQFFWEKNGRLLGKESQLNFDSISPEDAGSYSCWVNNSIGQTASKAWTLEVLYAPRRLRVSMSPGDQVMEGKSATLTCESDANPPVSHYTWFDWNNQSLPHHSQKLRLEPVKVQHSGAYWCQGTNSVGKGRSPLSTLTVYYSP
Experimental: The binding affinity of murine and humanized 10F4 antibody for soluble CD22 extracellular domain (ECD) was determined by surface plasmon resonance measurement using a BIACORE® 3000 system (Biacore, Inc., Piscataway, N.J.). Briefly, carboxymethylated dextran biosensor chips (CMS, Biacore Inc.) were activated with N-ethyl-N′-(3-dimethylaminopropyl)-carbodiimide hydrochloride (EDC) and N-hydroxysuccinimide (NHS) according to the supplier's instructions. These activated chips were coated with anti-CD22 IgG1 antibody 10F4 (murine or humanized) by dilution to 5 μg/ml with 10 mM sodium acetate, pH 4.8, before injection at a flow rate of 5 μl/minute to achieve approximately 500 response units (RU) of coupled antibody. Next, 1M ethanolamine was injected to block unreacted groups. […] Association rates (kon) and dissociation rates (koff) were calculated using a simple one-to-one Langmuir binding model (BIAevaluation Software version 3.2). The equilibrium dissociation constant (Kd) was calculated as the ratio koff/kon. Anti-CD22 antibody, RFB4, was used as a control (Chemicon International, Inc., Temecula, Calif., catalog no. CBL147).

[2] = system: cynomolgus monkey (cyno) CD22 expressed on the surface of CHO cells; test: Cell-based competitive binding assay with 125I antibody, Scatchard analysis; settings: 4 hours at 4° C.
Sequence of cynomolgus monkey (cyno) CD22 expressed on the surface of CHO cells (as listed by the source): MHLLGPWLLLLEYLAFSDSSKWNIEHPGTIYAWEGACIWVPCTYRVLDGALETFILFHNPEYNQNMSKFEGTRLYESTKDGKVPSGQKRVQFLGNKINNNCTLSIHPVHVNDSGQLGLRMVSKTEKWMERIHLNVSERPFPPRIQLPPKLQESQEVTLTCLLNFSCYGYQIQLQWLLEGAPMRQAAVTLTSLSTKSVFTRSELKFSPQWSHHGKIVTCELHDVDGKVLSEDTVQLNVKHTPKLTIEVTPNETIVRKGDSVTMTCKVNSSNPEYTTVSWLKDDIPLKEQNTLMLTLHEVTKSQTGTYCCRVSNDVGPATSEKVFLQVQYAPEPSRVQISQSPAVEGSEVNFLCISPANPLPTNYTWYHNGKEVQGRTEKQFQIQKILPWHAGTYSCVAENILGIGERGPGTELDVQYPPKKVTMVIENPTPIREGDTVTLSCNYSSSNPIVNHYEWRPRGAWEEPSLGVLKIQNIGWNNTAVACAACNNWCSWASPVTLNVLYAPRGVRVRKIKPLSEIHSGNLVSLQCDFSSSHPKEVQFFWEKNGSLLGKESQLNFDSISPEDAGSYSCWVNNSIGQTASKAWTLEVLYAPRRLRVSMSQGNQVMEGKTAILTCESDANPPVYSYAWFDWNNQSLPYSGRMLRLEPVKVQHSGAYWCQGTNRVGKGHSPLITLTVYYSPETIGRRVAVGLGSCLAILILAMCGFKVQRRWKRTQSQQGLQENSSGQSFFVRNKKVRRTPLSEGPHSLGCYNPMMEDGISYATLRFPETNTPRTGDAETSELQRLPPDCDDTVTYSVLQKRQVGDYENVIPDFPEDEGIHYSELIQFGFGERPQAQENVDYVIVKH
Experimental: Briefly, CHO cells stably expressing full length human CD22 (SEQ ID NO:27) or cynomolgus monkey (cyno) CD22 (SEQ ID NO:31). […] A cell-based, competitive binding assay was performed using serially diluted, unlabeled anti-CD22 antibody. Antibodies were allowed to bind to the cells for 4 hours at 4° C. Binding affinity, KD, of the antibodies was determined in accordance with standard Scatchard analysis performed utilizing a non-linear curve fitting program (see, for example, Munson et al., Anal Biochem, 107: 220-239, 1980).

BJAB-luc cells = test: BJAB-luc xenograft tumor volume reduction; type: in vivo, SCID mice; settings: single I.V. treatment, 32 days
Experimental: Sixty-five SCID mice were injected with 2×10^7 BJAB-luc cells subcutaneously in a volume of 0.2 ml per mouse in the flank. Cells were suspended in HBSS. When the mean tumor size reached 100-200 mm^3, mice were randomly grouped into four groups of 9 mice each and given a single I.V. treatment (via the tail vein) of the anti-CD22 or control antibody indicated in Table 4, below.
Mean tumor volume was monitored in each treatment group for 32 days post-antibody injection. Tumor measurements were taken with calipers. Efficacy of the toxin-conjugated anti-CD22 antibodies was determined by comparison to the control and unconjugated antibodies. […]

[3] = Table 4 study, 200 μg/m^2 DM1 (naked antibody 3.4 mg/kg)
[4] = Table 5 study, 200 μg/m^2 DM1 (naked antibody 4.5 mg/kg)

Molecule: Thio 10F4v3-HC(A118C)-BMPEO-DM1: conjugation of A118C thio hu HC-10F4v3 and bmpeo-DM1
- efficacy on mean tumor volume (DoHH2 cells): intermediate efficacy

Molecule: Thio 10F4v3-LC(V205C)-MCvcPAB-MMAE: conjugation of V205C thio hu LC-10F4v3 and MC-val-cit-PAB-MMAE
- mean tumor volume (Granta-519 cells): reduction in mean tumor volume for the duration of the study
- mean tumor volume (Granta-519 cells; listed as 10F4-LC-V210C-MCvcPAB-MMAE): decrease in tumor volume during the study

B1: Chimeric 10F4: chimeric 10F4 anti-CD22 antibody (antibody, V domains shown)
VH: QVQLQQSGPELVKPGASVKISCKASGYEFSRSWMNWVKQRPGQGREWIGRIYPGDGDTNYSGKFKGKATLTADKSSSTAYMQLSSLTSVDSAVYFCARDGSSWDWYFDVWGAGTTVTVSS
VL: DILMTQTPLSLPVSLGDQASISCRSSQSIVHSNGNTFLEWYLQKPGQSPKLLIYKVSNRFSGVPDRFSGSGSGTDFTLKISRVEAEDLGVYYCFQGSQFPYTFGGGTKVEIK
- koff/10^−4 [1]: 4.2
- kon/10^5 [1]: 0.26

B2: Humanized 10F4v1: humanized 10F4 version 1, VH SEQ ID NO:16, VL SEQ ID NO:17, IgG1 (antibody, V domains shown)
VH: EVQLVESGGGLVQPGGSLRLSCAASGYEFSRSWMNWVRQAPGKGLEWVGRIYPGDGDTNYSGKFKGKATLTADKSSSTAYLQMNSLRAEDTAVYYCARDGSSWDWYFDYWGQGTLVTVSS
VL: DIQMTQSPSSLSASVGDRVTITCRSSQSIVHSNGNTFLEWYQQKPGKAPKLLIYKVSNRFSGVPSRFSGSRSGTDFTLTISSLQPEDFATYYCFQGSQFPYTFGQGTKVEIKR
modifications: IgG1 constant regions; sequence is synthesized
- Kd ([2]; listed as Hu 10F4v1): 1.4 nM and 1.8 nM
- CR (number of animals attaining complete remission) (BJAB-luc cells; [3]): 0
- PR (number of animals with tumor regressed 50-99% from its initial volume) (BJAB-luc cells; [3]): 0
- TI (tumor incidence at the last time point; tumor-bearing animals / total animals) (BJAB-luc cells; [3]): 9/9

B3: Humanized 10F4v2: humanized 10F4 version 2, N28V in HVR-L1, VH SEQ ID NO:16, VL SEQ ID NO:18, IgG1 (antibody, V domains shown)
VH: EVQLVESGGGLVQPGGSLRLSCAASGYEFSRSWMNWVRQAPGKGLEWVGRIYPGDGDTNYSGKFKGKATLTADKSSSTAYLQMNSLRAEDTAVYYCARDGSSWDWYFDYWGQGTLVTVSS
VL: DIQMTQSPSSLSASVGDRVTITCRSSQSIVHSVGNTFLEWYQQKPGKAPKLLIYKVSNRFSGVPSRFSGSRSGTDFTLTISSLQPEDFATYYCFQGSQFPYTFGQGTKVEIKR
modifications: IgG1 constant regions; sequence is synthesized
- Kd [2]: 2.1 nM
- CR (number of animals attaining complete remission) (BJAB-luc cells; [4]): 0
- PR (number of animals with tumor regressed 50-99% from its initial volume) (BJAB-luc cells; [4]): 0
- TI (tumor incidence at the last time point; tumor-bearing animals / total animals) (BJAB-luc cells; [4]): 9/9
